Target: the molecule itself
Assay: cryo-EM structure; single particle cryo-EM of MscS in MSP1 E3D1 nanodiscs, POPC:POPG 4:1; 0.01% fluorinated octyl maltoside added; C7 symmetry in final refinement (the His-tagged sample also processed without symmetry, C1)

Protein	stoichiometry N	binding result
E. coli small-conductance mechanosensitive channel MscS with N-terminal 6xHis tag (natural protein, UniProt P0C0S1 1-286, looked up, Small-conductance mechanosensitive channel MscS, E. coli, full length; also called 6xHis-MscS-ND; MscS-ND; not shown: His6, N-terminal, kept) MEDLNVVDSINGAGSWLVANQALLLSYAVNIVAALAIIIVGLIIARMISNAVNRLMISRKIDATVADFLSALVRYGIIAFTLIAALGRVGVQTASVIAVLGAAGLAVGLALQGSLSNLAAGVLLVMFRPFRAGEYVDLGGVAGTVLSVQIFSTTMRTADGKIIVIPNGKIIAGNIINFSREPVRRNEFIIGVAYDSDIDQVKQILTNIIQSEDRILKDREMTVRLNELGASSINFVVRVWSNSGDLQNVYWDVLERIKREFDAAGISFPYPQMDVNFKRVKEDKAA	7	
MscS-Cryst (Δ2–26 MscS) (natural protein, E. coli, UniProt P0C0S1 1-286, looked up, Small-conductance mechanosensitive channel MscS, E. coli, lacking the N-terminal anchor domain (residues 2-26 removed); The tag is surmised from the vector and from the statement that the purification was the same; also called MscS ∆2–27; MscS ∆1–27; source: E. coli MJF465 (pQE70), purified as the wild type, reconstituted in MSP1 E3D1 nanodiscs (POPC:POPG)) MYAVNIVAALAIIIVGLIIARMISNAVNRLMISRKIDATVADFLSALVRYGIIAFTLIAALGRVGVQTASVIAVLGAAGLAVGLALQGSLSNLAAGVLLVMFRPFRAGEYVDLGGVAGTVLSVQIFSTTMRTADGKIIVIPNGKIIAGNIINFSREPVRRNEFIIGVAYDSDIDQVKQILTNIIQSEDRILKDREMTVRLNELGASSINFVVRVWSNSGDLQNVYWDVLERIKREFDAAGISFPYPQMDVNFKRVKEDKAA		binds

Reference: paper PMC7299334, “Molecular basis of force-from-lipids gating in the mechanosensitive channel MscS” (eLife, 2019)
